Experimental data reported in PMC6265350.

How the values were obtained:
MtrA~P = biological target: T1, MtrA~P (UniProt P9WGM7); test: EMSA; conditions: 50 mM Tris-HCl pH 7.5, 50 mM NaCl, 10 mM MgCl2, 10 mM CaCl2, poly dI/dC and sheared salmon sperm DNA (1 ug), 37 C 15 min; 200 fmol DNA, 1-10 uM protein; 5% …
T1 sequence: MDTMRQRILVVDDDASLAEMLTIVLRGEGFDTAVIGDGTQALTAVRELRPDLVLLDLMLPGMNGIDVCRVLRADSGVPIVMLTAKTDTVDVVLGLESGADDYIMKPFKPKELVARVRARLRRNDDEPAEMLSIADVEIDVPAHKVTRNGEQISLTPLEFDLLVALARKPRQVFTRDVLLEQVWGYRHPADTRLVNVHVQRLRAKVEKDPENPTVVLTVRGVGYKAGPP

MtrA (unphosphorylated) = biological target: T2, MtrA (unphosphorylated) (UniProt P9WGM7); test: EMSA; conditions: 50 mM Tris-HCl pH 7.5, 50 mM NaCl, 10 mM MgCl2, 10 mM CaCl2, […]
T2 sequence: T1 sequence

Sequence | binding (MtrA~P) | binding (MtrA (unphosphorylated))
CTGTGCAGAGTAGGTGATCGGCGGCCCGACCGCGAGGAGCCGCGCTGTGACTGGCGGGACGAAAGTTACAGATGAAGATATTTGCGTCCGGTGTCGGTGAGCACGCTGCGCAGGATGGTTTCGATGGTGTCGAACTCGGGCTGTCCGCTAATCAGCGGGGGAGCCACCTGGACGACGGGGTCCCCGCGGTCGTCGGTG (double strand) [PdacB1] | binds | –
TCGACTCAGATCTCCTAGGGCTCAACTCGGAGGGACAGCGCAGGTCAACGCCAACGACACCACAAGCATCATTTGCACCGTACGTCACATCTGACGCTATGGAAACGTAAGTCACAAACTGCCCCCGGTACGTGCGACTAATGTGACCCAACGGTGACCTCGCGCGTTTGCCGCAAACAACCGCCCGGTTAGCGCGGCAA (double strand) [PripA] | binds | binds
